From PMC10705946, “^225Ac-iPSMA-RGD for Alpha-Therapy Dual Targeting of Stromal/Tumor Cell PSMA and Integrins” (International Journal of Molecular Sciences, 2023)

Experiments:
[1] = in vivo
Protocol: (§1) All animal procedures followed the Ethical Regulations for the Handling of Laboratory Animals (NOM-062-ZOO-1999) and the requirements of the Institutional Animal Care and Use Committee, according to an approved protocol (CICUAL-08-2018-2021). […] Mice were injected with 3.7 kBq (50 µL) of ^225Ac-iPSMA-RGD and necropsied at 1, 3, 24, 72, and 96 h (n = 3). The liver, heart, kidney, pancreas, lung, spleen, small intestine, and stomach were measured using the Francium-221 photopeak (218 keV) in a hyperpure germanium gamma spectrometer (Ortec, Atlanta, GA, USA). Results were recorded as a percentage of injected dose (%ID) per organ. Blood and bone samples were also dissected, and the associated activity was recorded as %ID/g. A second group of mice was inoculated subcutaneously with 1 × 10^6 HCT116 cells. […] Animals were necropsied on day 11 post-treatment, as described above. Radioisotopic/X-ray ex vivo images of the source organs and tumor were obtained in a preclinical imaging system (Bruker, XTREME, Billerica, MA, USA).

[2] = mice, day 11 after treatment
[3] = HCT116 tumor-bearing mice, 11 days after administration (37 kBq)
Protocol: as §1

[4] = system: HCT116 tumors; assay: Tumor size progression after treatment; type: in vivo, mice; conditions: 37 kBq
Protocol: A second group of mice was inoculated subcutaneously with 1 × 10^6 HCT116 cells. After the mice developed a tumor (0.220 ± 0.030 g), they were treated with 3.7 kBq (50 µL) of ^225Ac-iPSMA-RGD (n = 3) via tail vein injection. Animals were necropsied on day 11 post-treatment, as described above.

[5] = system: HCT116 tumor and lung, spleen, kidney, liver tissues; assay: Histology (H&E) and immunohistochemistry of organs and tumor; type: in vivo, mice
Protocol: Formalin-fixed paraffin-embedded samples (lung, spleen, kidney and tumor), were sectioned at 4 µm sections and stained with H&E. For immunohistochemical reactions, samples were deparaffinized, hydrated, and subjected to an antigen retrieval protocol (slides were immersed in a prewarmed Citrate-EDTA buffer solution (10mM citric acid, 2 mM EDTA, 0.05% Tween 20, pH 7.0) at 100 °C for 30 min. Endogenous peroxidase was then blocked with 0.9% hydrogen peroxide (H2O2) solution for 5 min. To prevent non-specific binding, the samples were incubated with 5% bovine serum albumin (BSA) for 10 min. After subsequent washes with phosphate-buffered saline (PBS)-Tween (0.05%), samples were incubated overnight at 4 °C with primary monoclonal rabbit anti- Ki-67 [SP6] antibody (Biocare Medi-cal-CRM 325A, Pacheco, CA, USA). After subsequent washing, samples were incubated with secondary HRP donkey anti-rabbit IgG (minimal x-reactivity) antibody (Biolegend-406401 San Diego, CA) for 1 h. For mitochondrial permeabilization processes estimation, the samples were incubated overnight at 4 °C with unconjugated Bcl-2 (C2) sc-7882 antibody (Santa Cruz Biotechnology Inc., Dallas, TX, USA). As a secondary antibody, we used m-IgG1 BP-HRP: sc-525408 (Santa Cruz Biotechnology Inc., Dallas, TX, USA). Samples were incubated for 1 h. For apoptotic cell estimation, unconjugated active (cleaved) Caspase-3 Monoclonal Antibody bsm-33199M (Bioss Inc., Woburn, MA, USA) was used. The samples were incubated overnight at 4 °C, and the secondary antibody was goat Anti-Mouse IgG (Fc specific)–peroxidase antibody A2554 (Millipore-Sigma Aldrich, Merck KGaA, Darmstadt, Germany). Samples were incubated for 1 h. Both primary and secondary antibodies were used at a 1:100 dilution. To visualize the immunoreactions, the samples were washed with distilled water and Tris-buffered saline-Tween (TBST) for 5 min, and the diaminobenzidine (DAB) (Dako Liquid DAB+ Substrate Chromogen System K3468) was applied for 60 s. Excess chromogen was removed by washing with PBS-Tween. Finally, the slides were counterstained with Harris hematoxylin, dehydrated, and coverslipped. As a negative control, immunoreactions were performed using the same method with PBS instead of the primary antibody. Images were captured using a Lumenera INFINITY X-32 MP camera in a Carl Zeiss Axiostar microscope.

[6] = Stability in saline solution (0.9% NaCl) and human serum by radio-HPLC; type: physicochemical; conditions: in both saline and serum
Protocol: To evaluate the radiochemical purity, a reversed-phase HPLC system with Waters Millenium 32 software coupled to an in-line UV-Vis and radioactivity detector was used, as previously detailed. To recover free ^225Ac and ^225Ac-HEHA-iPSMA, fractions of 1.0 mL were collected, and the activity quantification was through the 218 keV-gamma emission of Fr-221 by assuming secular equilibrium.

[7] = system: HCT116 cells; assay: Viability (cytotoxicity) assay at 24 h; type: cell-based, human; conditions: 2 to 4 Gy
Protocol: Cytotoxic assays were performed in triplicate (n = 6) using HCT116 cells. After harvesting each cell line, 10,000 cells per well were placed in a 96-well plate and incubated at 37 °C to allow adherence. After 24 h, the culture medium was removed, and treatments (2 Gy, 4 Gy) were placed in each well. To deliver 2 and 4 Gy of radiation dose, 6 Bq/well and 12 Bq/well were added and exposed for 15 h. Then, the treatments were removed and replaced with the medium. The cytotoxicity was evaluated at 24 h by using the Cell proliferation assay (Roche Diagnostics GmbH, Mannheim, Germany). Statistical analysis was performed with two-way ANOVA followed by Tukey’s multiple comparisons test using GraphPad Prism 5.0 Software. Data are shown as mean ± SEM. A p < 0.05 was considered statistically significant.

[8] = system: HCT116 cells; assay: Proliferation capability (clonogenic) assay; type: cell-based, human; conditions: 2 Gy and 4 Gy tested
Protocol: HCT116 cell line was used to evaluate the ability of a single cell to form colonies after exposure to ^225Ac-iPSMA-RGD treatment, in triplicate. We seeded 500 cells in each well (six-well plate) and treated them with 4.5 Bq/well (2 Gy), […] (4 Gy), and control (no treatment) for 1 h, dissolved in 2 mL of RPMI medium. After exposure, the treatments and medium were removed and replaced with fresh medium. The plates were incubated for 15 days. Surviving colonies were fixed for 10 min with 4% paraformaldehyde at room temperature and washed with type 1 water. Afterward, they were stained with 0.1% crystal violet for 30 min, washed with purified water, and dried. For quantification, 10% acetic acid was added for 5 min to extract the crystal violet and the absorbance was measured at 590 nm in a microplate absorbance reader (EpochTM; BioTek Instruments, Winooski, VT, USA). Statistical analysis was performed with two-way ANOVA followed by Tukey’s multiple comparisons test using GraphPad Prism 5.0 Software. Data are shown as mean ± SEM. A p < 0.05 was considered statistically significant.

[9] = HCT116 tumor, immunohistochemistry

With N=C(N)NCCC[C@@H]1NC(=O)[C@H](CCCCNC(=O)CCCN2C(=O)CC(SC[C@H](NC(=O)c3ccc(NNC(=S)Nc4ccc(CC5CN(CC(=O)O)CCN(CC(=O)O)CCN(CC(=O)O)CCN(CC(=O)O)CCN(CC(=O)O)CCN5CC(=O)O)cc4)nc3)C(=O)N[C@@H](Cc3ccc4ccccc4c3)C(=O)NCCCC[C@H](NC(=O)N[C@@H](CCC(=O)O)C(=O)O)C(=O)O)C2=O)NC(=O)[C@@H](Cc2ccccc2)NC(=O)[C@H](CC(=O)O)NC(=O)CNC1=O (stereo partly drawn) [^225Ac-iPSMA-RGD, ^225Ac-HEHA-HYNIC-iPSMA-RGD, metal not drawn] the Biodistribution pattern ([1]; healthy mice) was “rapid blood clearance with hepatobiliary and renal elimination and no accumulation in other tissue”, the tissue uptake ([1]; male, Nu/Nu, mouse, bone, 3.7 kBq, total radioactivity) was 0.5 ± 0.3 %ID/g and the “Renal or hepatic function damage” value [2] was “no damage to renal or hepatic function was detected”. The Serum alanine aminotransferase [2] was 70 ± 8 IU/L, the Serum aspartate aminotransferase [2] was 141 ± 19 IU/L and the Serum creatinine [2] was 0.215 ± 0.071 mg/dL. The “Tissue retention in ex-vivo radioisotopic imaging” value [3] was “the tissue accumulating the radiotracer for the longest time is the tumor”, the “Tumor size progression compared to control group (untreated mice)” value ([4]; HCT116 tumor-bearing mice) was “significantly lower (p < 0.05)” and the “Tumor size compared to ^225Ac-RGD and ^225Ac-PSMA groups” value ([4]; eleven days after administration) was “significantly lower (p < 0.05)”. The “Bcl-2 expression in tumor” value [5, 9] was “inhibited the Bcl-2 expression”, the “Caspase-3 activity in tumor” value [5, 9] was “upregulated the Caspase-3 activity” and the “Tumor proliferative activity (Ki67 expression) vs untreated mice” value [5, 9] was “significantly lower”. The “Histological (H&E) evaluation of lung, spleen, kidney and liver” value ([5]; treated mice vs untreated mice) was “no pathologic changes”, the “Decrease of radiochemical purity” value ([6]; 5 h after preparation) was 2% and the “Decrease of radiochemical purity” value ([6]; 24 h after preparation) was 10%. For the same compound, the “Decrease of radiochemical purity” value ([6]; 72 h after preparation) was 30%, the Cell viability [7] was “dose-dependent decrease in cell viability” and the “Reduction of proliferation capability” value [8] was 65%.
